Reference: patent US20230242601A1 (published 2023)

B1: SynP130-140 Y136F (peptide)
peptide: EEGYQDFEPEA
B2: SynP130-140 Y133F/Y136W (peptide)
peptide: EEGFQDWEPEA
B3: SynP130-140 peptide (peptide)
peptide: EEGYQDYEPEA
B4: SynP130-140 Y133F/Y136F (peptide)
peptide: EEGFQDFEPEA
B5: SynP130-140 Y133W/Y136W (peptide)
peptide: EEGWQDWEPEA
B6: SynP130-140 Y136W (peptide)
peptide: EEGYQDWEPEA

biological target: FABP3 fused with a His-tag at the N-terminus; test: QCM
Sequence (chain, as listed by the source): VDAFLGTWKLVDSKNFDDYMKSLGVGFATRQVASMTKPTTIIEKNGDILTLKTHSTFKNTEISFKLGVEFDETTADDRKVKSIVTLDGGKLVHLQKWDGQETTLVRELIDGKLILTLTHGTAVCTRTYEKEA

Row | Kd [nM] | Binder
1 | 7.7 | B1
2 | 6.1 | B2
3 | 6.1 | B3
4 | 2.1 | B4
5 | 6.2 | B5
6 | 6.3 | B6
